Measurements from the Human Domainome abundance scans (Beltran et al. 2025).
± gives the uncertainty stated by the source.

B1: Gamma-crystallin C, residues 4 to 79; numbered along this chain, P07315 (parent)
chain: ITFYEDRAFQGRSYETTTDCPNLQPYFSRCNSIRVESGCWMLYERPNYQGQQYLLRRGEYPDYQQWMGLSDSIRSC

Variants of: B1
Assay: abundance fitness (aPCA) (normalised: wild type 0, dead -1); higher = more abundant; growth selection in yeast, the domain comes from the species named
Details: Homo sapiens

Variant	abundance fitness
I73M	0.106 ± 0.094
I73S	-0.39 ± 0.084
I73E	-0.655 ± 0.2
I73A	0.055 ± 0.053
I73L	0.025 ± 0.077
I73Y	-0.207 ± 0.3
I73W	0.124 ± 0.12
C20Y	-0.079 ± 0.11
C20Q	-0.027 ± 0.16
C20M	0.068 ± 0.12
C20W	-0.103 ± 0.046
C20S	0.104 ± 0.11
C20N	0.22 ± 0.26
C20F	-0.211 ± 0.23
W40V	0.088 ± 0.11
W40M	-0.496 ± 0.15
W40A	0.036 ± 0.084
W40E	-0.978 ± 0.2
W40L	-0.243 ± 0.052
W40S	-0.451 ± 0.13
W40Y	-0.16 ± 0.28
P21Q	0.016 ± 0.086
P21F	-0.161 ± 0.24
G68E	-0.062 ± 0.12

Variant	abundance fitness
G68Y	0.097 ± 0.089
F27H	-0.096 ± 0.033
F27N	-0.315 ± 0.17
F27A	0.124 ± 0.11
R34L	-0.077 ± 0.076
R34E	-0.373 ± 0.12
R34H	-0.163 ± 0.32
R34Y	-0.098 ± 0.2
R34P	-0.827 ± 0.25
R34F	-0.113 ± 0.21
R34W	-0.045 ± 0.16
R34A	0.026 ± 0.099
D19T	-0.135 ± 0.12
D19A	-0.086 ± 0.09
D19I	-0.011 ± 0.18
D19Q	-0.032 ± 0.12
N31L	-0.294 ± 0.32
N31V	-0.052 ± 0.35
N31G	-0.069 ± 0.28
N31S	-0.019 ± 0.24
T2Y	0.088 ± 0.34
T2L	-0.15 ± 0.097
T2V	0.049 ± 0.13
T2G	-0.329 ± 0.093

Variant	abundance fitness
T2A	-0.254 ± 0.098
T2R	-0.145 ± 0.099
Q65H	-0.065 ± 0.089
Q65S	-0.042 ± 0.064
Q65C	0 ± 0.11
Q65A	0.006 ± 0.068
Q65Y	0.029 ± 0.13
Q65W	-0.119 ± 0.062
Q65R	-0.036 ± 0.057
Q24R	0.007 ± 0.075
Q24S	0 ± 0.11
Q24F	-0.14 ± 0.19
Y4Q	-1.01 ± 0.39
Y4F	0.333 ± 0.4
Y4K	-0.862 ± 0.31
C39S	0.062 ± 0.094
C39E	-0.045 ± 0.17
C39Q	-0.088 ± 0.12
E15I	0.066 ± 0.23
E15M	-0.013 ± 0.15
E15Y	-0.057 ± 0.2
E15Q	0.026 ± 0.18
E15G	-0.072 ± 0.057
L42W	-0.919 ± 0.27

Variant	abundance fitness
L42P	-0.864 ± 0.27
L42S	-0.287 ± 0.098
L42D	-0.857 ± 0.48
L42C	-0.031 ± 0.18
R45C	-0.142 ± 0.19
R45I	-0.16 ± 0.27
R45V	-0.15 ± 0.085
R45N	-0.169 ± 0.19
W66L	-0.082 ± 0.074
W66D	-0.12 ± 0.12
W66A	0.039 ± 0.078
W66P	0.005 ± 0.1
W66T	0.021 ± 0.083
W66G	0.059 ± 0.046
W66C	-0.168 ± 0.13
W66Y	0.069 ± 0.12
G58R	-0.16 ± 0.05
G58N	0.034 ± 0.14
V35S	-0.589 ± 0.15
V35A	-0.422 ± 0.11
V35M	-0.84 ± 0.19
V35Q	-0.854 ± 0.28
P25Y	-0.257 ± 0.26
P25H	-0.241 ± 0.37

Variant	abundance fitness
P25S	0.047 ± 0.066
S32P	-0.857 ± 0.23
S32F	-1.09 ± 0.38
S32R	-1.07 ± 0.31
S32L	-0.985 ± 0.2
S32W	-0.889 ± 0.26
S37T	0.028 ± 0.14
S37A	-0.255 ± 0.14
S37G	-0.061 ± 0.062
R74Y	0.105 ± 0.14
R74K	-0.013 ± 0.12
R74V	0.108 ± 0.053
R74H	-0.001 ± 0.11
R74A	0.039 ± 0.05
R74Q	-0.001 ± 0.1
R74L	0.023 ± 0.049
Y14V	-0.216 ± 0.092
Y14A	-0.024 ± 0.1
Y14G	-0.497 ± 0.086
D71S	-0.056 ± 0.055
D71H	-0.092 ± 0.1
D71K	0.094 ± 0.11
D71E	0.027 ± 0.086
D71L	0.021 ± 0.068

Variant	abundance fitness
Q10P	-1.2 ± 0.42
Q10S	-0.066 ± 0.066
Q10Y	-0.107 ± 0.22
Q10F	-0.082 ± 0.14
Q10C	0.053 ± 0.075
Q10W	-0.159 ± 0.091
Q10G	-0.002 ± 0.038
Q52N	-0.053 ± 0.21
Q52R	-0.072 ± 0.073
Q52C	-0.138 ± 0.21
Q52S	-0.041 ± 0.12
S75V	-0.226 ± 0.053
S75C	0.044 ± 0.12
S75E	-0.793 ± 0.27
S75R	-0.479 ± 0.069
L23W	-0.771 ± 0.26
L23N	-0.676 ± 0.26
L23A	-0.173 ± 0.082
E5P	-0.127 ± 0.13
E5D	-0.008 ± 0.15
E5R	0.014 ± 0.067
E5W	-0.209 ± 0.11
G50N	-0.359 ± 0.13
G50C	-0.336 ± 0.35

Variant	abundance fitness
G50M	-1.02 ± 0.38
Y63T	-0.113 ± 0.086
Y63D	-0.067 ± 0.12
Y63E	-0.146 ± 0.079
Y63S	-0.06 ± 0.083
Y63P	0.094 ± 0.092
Y63N	-0.088 ± 0.21
Y63V	-0.103 ± 0.054
Y63M	-0.12 ± 0.062
Y63A	-0.115 ± 0.062
D62F	0.041 ± 0.15
D62M	-0.03 ± 0.084
D62I	-0.26 ± 0.23
D62C	-0.177 ± 0.098
D62Q	-0.062 ± 0.082
D62S	-0.071 ± 0.085
D62L	-0.086 ± 0.085
L69P	-0.07 ± 0.12
L69Q	0.08 ± 0.12
L69F	0.147 ± 0.12
Q64P	-0.013 ± 0.085
Q64C	0.062 ± 0.096
Q64E	0.024 ± 0.083
Q64T	-0.004 ± 0.092

Variant	abundance fitness
F9W	-0.028 ± 0.067
F9Q	-0.207 ± 0.39
F9M	-0.095 ± 0.19
S72K	0.058 ± 0.13
S72M	0.019 ± 0.11
S72Y	0.01 ± 0.11
S72A	-0.136 ± 0.081
S72V	-0.012 ± 0.077
S72T	-0.145 ± 0.088
Q49L	0.022 ± 0.11
Q49V	-0.098 ± 0.097
Q49E	0.098 ± 0.15
Q49C	0.33 ± 0.29
Q49D	-0.041 ± 0.41
Q49P	-0.805 ± 0.34
E59K	0 ± 0.11
E59V	-0.053 ± 0.054
E59N	-0.155 ± 0.23
E59Q	0.009 ± 0.15
E59A	-0.07 ± 0.071
E59L	-0.084 ± 0.1
M41A	-0.07 ± 0.12
S28C	-0.117 ± 0.17
S28R	-0.045 ± 0.072

Variant	abundance fitness
S28V	-0.03 ± 0.084
S28K	0.317 ± 0.13
T16P	-0.342 ± 0.18
T16M	0.074 ± 0.17
T16K	-0.011 ± 0.18
T16W	0.012 ± 0.085
T16D	-0.215 ± 0.066
T16R	-0.078 ± 0.081
R57P	-0.009 ± 0.12
R57I	-0.053 ± 0.16
E36I	-0.201 ± 0.23
E36F	-0.131 ± 0.21
E36P	0.018 ± 0.16
E36S	-0.032 ± 0.11
Y48L	-0.182 ± 0.072
Y48H	0.042 ± 0.21
Y48E	-0.373 ± 0.15
Y48V	-0.955 ± 0.27
Y48C	0.083 ± 0.2
Y48G	-0.109 ± 0.064
R12Y	-0.022 ± 0.15
R12M	-0.043 ± 0.079
R12A	-0.058 ± 0.071
R12K	0.031 ± 0.1

Variant	abundance fitness
Q51G	-0.047 ± 0.09
Q51S	-0.015 ± 0.22
Q51A	-0.012 ± 0.098
Y43R	-0.926 ± 0.14
Y43S	0.094 ± 0.083
Y43H	0.055 ± 0.11
Y43F	-0.15 ± 0.15
S70N	-0.021 ± 0.11
S70D	-0.074 ± 0.12
S70T	-0.072 ± 0.075
L54C	0.085 ± 0.14
L54K	0.057 ± 0.19
L54T	-0.234 ± 0.1
G38E	-0.009 ± 0.2
G38C	-0.005 ± 0.14
G38P	-0.108 ± 0.14
G38R	-0.153 ± 0.055
G38A	-0.008 ± 0.074
I1V	-0.032 ± 0.27
C30L	-0.299 ± 0.074
C30P	-0.079 ± 0.2
C30T	-0.176 ± 0.12
C30R	-0.768 ± 0.14
C30E	-0.95 ± 0.29

Variant	abundance fitness
C30W	-0.58 ± 0.13
L55I	0.038 ± 0.16
L55G	-0.571 ± 0.068
L55M	-0.237 ± 0.12
D6V	-0.164 ± 0.14
D6N	-0.035 ± 0.21
D6G	-0.009 ± 0.055
D6A	-0.103 ± 0.11
D6H	0.115 ± 0.23
N47H	-0.125 ± 0.15
N47R	-0.038 ± 0.058
N47A	0.047 ± 0.084
N47S	-0.115 ± 0.085
N47V	-0.181 ± 0.13
N47D	-0.032 ± 0.26
N47K	0.025 ± 0.1
E44A	-0.034 ± 0.085
E44L	-0.006 ± 0.19
E44Q	0.049 ± 0.13
E44S	-0.077 ± 0.1
E44R	0.002 ± 0.066
E44D	0.022 ± 0.14
E44W	-0.372 ± 0.12
P61V	-0.083 ± 0.064

Variant	abundance fitness
P61C	-0.072 ± 0.052
P61A	-0.004 ± 0.061
P61G	-0.041 ± 0.069
P61M	0.002 ± 0.068
P61Y	-0.018 ± 0.17
P61S	0.004 ± 0.08
P61R	-0.038 ± 0.053
N22H	-0.176 ± 0.16
N22R	0.016 ± 0.065
N22T	0.097 ± 0.11
N22V	0.026 ± 0.06
N22F	0.17 ± 0.13
S13I	0.028 ± 0.15
S13A	-0.051 ± 0.085
S13Y	-0.271 ± 0.2
C76A	0.056 ± 0.078
C76D	-0.834 ± 0.13
C76M	-0.192 ± 0.14
C76E	-0.795 ± 0.32
C76G	0.116 ± 0.065
C76P	-0.984 ± 0.18
C76R	-0.904 ± 0.25
C76H	-0.574 ± 0.092
R56E	0.005 ± 0.086

Variant	abundance fitness
R56F	0.195 ± 0.22
R56W	-0.029 ± 0.18
R56S	-0.611 ± 0.14
R56P	-0.115 ± 0.13
A8W	-0.069 ± 0.051
A8E	0.103 ± 0.11
A8H	0.016 ± 0.2
A8F	-0.06 ± 0.13
A8C	0.072 ± 0.092
T18L	-0.023 ± 0.084
T18I	-0.031 ± 0.19
T18W	0.017 ± 0.091
F3V	-1.08 ± 0.13
F3P	-1 ± 0.36
F3N	-0.826 ± 0.21
F3I	-0.368 ± 0.18
F3G	-1.23 ± 0.23
I33S	-0.642 ± 0.2
I33A	0.054 ± 0.084
R7T	-0.237 ± 0.19
R7W	-0.086 ± 0.11
R7V	0.045 ± 0.087
R7D	-0.153 ± 0.32
R7N	0.044 ± 0.12

Variant	abundance fitness
Y53V	-0.025 ± 0.085
Y53K	-0.026 ± 0.12
Y53C	-0.113 ± 0.14
Y53W	0.084 ± 0.085
T17N	-0.24 ± 0.21
T17Q	0.048 ± 0.27
T17M	-0.124 ± 0.11
T17K	-0.119 ± 0.11
R29S	0.059 ± 0.1
R29F	0.103 ± 0.14
R29A	0.085 ± 0.091
R29V	-0.009 ± 0.079
R29Q	-0.117 ± 0.14
G11F	-0.919 ± 0.39
G11S	-0.142 ± 0.079
G11C	-0.299 ± 0.12
G11W	-0.955 ± 0.19
G11Q	-0.421 ± 0.15
Y26Q	-0.077 ± 0.19
Y26F	0.033 ± 0.12
Y26R	-0.031 ± 0.072
Y26E	-0.138 ± 0.11
